Measurements published in patent publication US20140363432A1.

Key:
[1] = molecular target: recombinant hVEGF (165 amino acids) (human) (UniProt P15692); experiment: 125I-hVEGF binding to bovine ACE cells with antibody (FIG. 3b); settings: scale: molar ratio of antibody to hVEGF
[2] = molecular target: recombinant hVEGF (165 amino acids) (human) (UniProt P15692); experiment: cell-based or functional assay
[3] = molecular target: recombinant hVEGF (165 amino acids) (human) (UniProt P15692); experiment: competitive binding of 125I-hVEGF against unlabeled hVEGF, immune complexes precipitated, Scatchard analysis

UniProt P15692, sequence (P15692 other isoform, or with tags, fused parts or gaps): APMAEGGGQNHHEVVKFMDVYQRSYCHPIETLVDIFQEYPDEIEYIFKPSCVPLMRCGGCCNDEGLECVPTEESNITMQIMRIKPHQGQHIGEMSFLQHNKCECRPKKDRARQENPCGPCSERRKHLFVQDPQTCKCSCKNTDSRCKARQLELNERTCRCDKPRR

Substance: anti-hVEGF monoclonal antibody produced by the A4.6.1 hybridoma
- molar ratio of hVEGF to antibody at complete inhibition of hVEGF binding to bovine ACE cells [1]: 250
- inhibition of hVEGF mitogenic activity on bovine ACE cells [2]: > 90 % inhibition
- Ka [3]: 1.2e+09 M⁻¹
